{"source": "a protein production outcome set (Wang et al. 2014)", "data": [{"assay": "label from the status in PepcDB records", "values": [{"sequence": "MAETIISLLSPTLDIKSPYYFNPDYLHQFNMHTNTAIDKLSEAKDNYAIWKLRFFDLLQFTNKTGFIDGTLPKPDPSSPYYEPWKQCNAIVLHWLSNTVTDTLQNHVLQAETVHKAWEDLRRIFVPCIDFKIYELRQRLATLRQGGDSVAEYFGKLSKAWLELKAYDPVQECKCGGCDCESEKRATEAREKEQRYAFLMGLNKEFDYVKMKVMHKKIPPSVYQAYEMVVYSEAMMKWKMGGRI", "protein production": "failed"}, {"sequence": "MAEVKTRDEHDEEPPRFDAQAATIAPETILLHPGPAAIVALGGGEALCNALGEPLRPLFSPEAADSLLPEIRSALETGVPQQKVVDVGRDGLPAQFDLIILPTAEPGRVVVIGRDVTLERTLRKALTDSRQRYKDFVDLSIDFTWETGPDGRFVFVSPDGALGYAARDLVGALPWTLMDITDAQSGATVFNSPVRVKDVDIWVRRRDGTLACLKTSSMPVFDASGEWSGGRGVCHDITEQHDRDKALARALNRQRVVANVERTFRDEIDPSNMLNVAAEALARSVGGDGCLIYRAALDDGPDRPFLPRGRFGEGGDEKVVLTLEALGEGAHAQTTPDGKWTVLVAASRYRRQINGAVVLWRRIERGAWSEDDHLLIVDVANQIGSANEQIGQHDRIISMSRTDGLTGLLNRRAFFDDMDRRLKGPPGLVERRAGEEAARRSERPARSALLYIDLDNFKWVNDAHGHLRGDEALMTVRKILTDHTRATDIVARLGGDEFAIWLEGADAEAASAKAAEILAEDALLRPFDGSPDRPLSLSIGLAIHDPASGEGVEDLTARADMAMYAAKHGGKGRFSLSLPPPHTPT", "protein production": "failed"}, {"sequence": "MAFDAARYVHRYYASLAPAPGNEYPRLRAWEYLWEYVWDPSRSWDDLTAPEQLDTTALHLGFYLANWGMFRGSSGLLQNSNLDLMKALARQLFSGAGPELFELSLVDFAGNGARLAHNRKLLETVLGSMDALSSRVSWTDTLKSKILLGVWGEFPALDRHYVAACRALYPRRGLTSVNGGTLTALHRLIGEERLSFPRLETARKGLLYPTGRLADMAFFQYGLENALEHHHHHH", "protein production": "not failed"}, {"sequence": "MAFIESWAKRTWLVPPQMQLYVDYKIKVTEILTNYTSIEEIHSYSIDESFLDITESLNFFYPDIRNRYEQMNLITLDLQREILDKLGLYVTVGMGDNPLLAKLAMDNYAKHNQNMRALIRYLEHHHHHH", "protein production": "failed"}, {"sequence": "MAFIIDLLLLCCSAFMSSCEVAYFSLKPIDLQNIRERNHSSDIALSNLLDNSNQLLATILIGNNVINVAIVILSNYAIEQTFVFSSPIIGFLIQTILLTTVLLLFGEILPKVYARKNPLQYSRFSAAAMSVIYKILSPFSKLLVKSTGIVTRGISKKKYDMSVDELSKAVALTTTEGEPEEKEMINEIIKFYNKTACEIMVPRIDIVDVDLSWPFRKMLDFVVSSGYSRLPVSEGSEDNIKGVIYIKDLIPHMDKGDEFDWHPLIRKAYFVPENKRIDDLLEEFRANKVHVSIVVDEFGGTCGLITMEDILEEIVGEITDEYDEEELPFKVLGDGSYLFEGKTSLSDVRHYLDLPENAFGELGDEVDTLSGLFLEIKQELPHVGDTAVYEPFRFQVTQMDKRRIIEIKIFPFERTWEVE", "protein production": "failed"}, {"sequence": "MAFITGAARGQGRSHAVRLAAEGADIIACDICAPVSASVTYAPASPEDLDETARLVEDQGRKALTRVLDVRDDAALRELVADGMEQFGRLDVVVANAGVLSWGRVWELTDEQWDTVIGVNLTGTWRTLRATVPAMIEAGNGGSIVVVSSSAGLKATPGNGHYSASKHGLTALTNTLAIELGEYGIRVNSIHPYSVETPMIEPEAMMEIFARHPSFVHSFPPMPVQPNGFMTADEVADVVAWLAGDGSGTLTGTQIPVDKGALKY", "protein production": "failed"}, {"sequence": "MAFLDKIKSAVIAEWHTHKILPSLTAAQAILESGWGKYAPHNALFGIKADSSWTGKSFNTKTQEEYQPGIVTDIVDRFRAYDSWEDSIADHGQFLVDNPRYKAVIGEADYKKACHAIKDAGYATASGYAELLIQLIEENNLQEWDAEAIKNKEEQMISSQCREVIEFFINLANAGVGVDKDSFAGWQCADVPCYAAKHWFGVDLWGNAIDLLDSAAAVGWEVHRMPTDANPRTGAFFVQSVPCHQFGHTGIVIEDSDGYTMRTVEQNIDGNPDALYVGAPARFNTRDFTGVLGWFYPPYQGDIVTQPVSTEPQNSDTIVETPKTGTFTLDVAEINIRRWPSLASEVVGSYKQGDTVSFDSEGYANGYYWISYVGGLGMRNYLAIGQTDKDGNRISIWGKLN", "protein production": "failed"}, {"sequence": "MAFSDDLPPPPRVNDHVKTRRNRKRRTIKTKQLEELISTATRAAHVARDKGFYIVSPEAIQCVEILRHMRTLPLNARLITKTDGLRVLLFLSKNGNPKIRSESKAVIDHWKSILHTKVH", "protein production": "failed"}, {"sequence": "MAFSGSQAPYLSPAVPFSGTIQGGLQDGLQITVNGTVLSSSGTRFAVNFQTGFSGNDIAFHFNPRFEDGGYVVCNTRQNGSWGPEERKTHMPFQKGMPFDLCFLVQSSDFKVMVNGILFVQYFHRVPFHRVDTISVNGSVQLSYISFQNPRTVPVQPAFSTVPFSQPVCFPPRPRGRRQKPPGVWPANPAPITQTVIHTVQSAPGQMFSTPAIPPMMYPHPAYPMPFITTILGGLYPSKSILLSGTVLPSAQRFHINLCSGNHIAFHLNPRFDENAVVRNTQIDNSWGSEERSLPRKMPFVRGQSFSVWILCEAHCLKVAVDGQHLFEYYHRLRNLPTINRLEVGGDIQLTHVQT", "protein production": "not failed"}, {"sequence": "MAFSTDDTLWREFLQVWPLERLREMTLAEYTTAGDKDCFVYWLEFRLVDYGSIAGGSAFKFAIFSRKETGAREGDTSLAYDDRYGWYRRFGTSPEEAFQTIRGHVVAVAEAARDGRLDEIDNSPLGAAYRWKIAFHYQPLRNPSTPCVYVRKPLLHFLGLSAADTTTPQSELYQALARLRQADESIFVFSERLWKDWVADTPFVVKLSEGAIKHGYLPVNLISAPFPETMYGGKTPNEAADVAHFRTDTGLEFDTDLRVSSPGSARLRHRLGGYFEDIGAAAGDLITLTQDGDGTYLLSSKLAVHAIGPTASAATITARASVKEAAAVRPPLNQILFGPPGTGKTYEAIEKALEILDPSFLLQLGDDESNERRRALKRRYDELAKEGLVQFVTFHQSFSYENFVEGLSASSDPDTKQVRYEVEDGVFKELCESARTRLVRRSDDAPLELSGRRIWKLSLGDSITEGHIFEECMEKGLALMGFGNNADFSQCQSREDIQKMFAASGEPLSLGAYPITAIKTFVCQMKLGDLIVVSEGNLKFRAIGEITGDYQLLPRDSDTYSQARPVRWLRGYKPALPYGALMENRFSQMTVYELRAGSIDHDKFRELLKSECIATGADRPHVLIIDEINRGNVSRIFGELITLIEPSKRSGAAEALEVLLPYSKDPFSVPDNVYLIGTMNTADRSLAGLDIALRRRFDFVEMAPRPDKLTGVKVAEIDISAVLETMNRRIEVLLDREHRLGHAYFMSLENSNDLSRLSNIFRQQIIPLLQEYFFEDWQRIAWILNDHRKDERFRFIVPAPYSVDSLFGDTGQVAQDSKAWRMNEEAFHKPQSYLGIVGDGKV", "protein production": "failed"}, {"sequence": "MAFTPFPPRQPTASARLPLTLMTLDDWALATITGADSEKYMQGQVTADVSQMAEDQHLLAAHCDAKGKMWSNLRLFRDGDGFAWIERRSVREPQLTELKKYAVFSKVTIAPDDERVLLGVAGFQARAALANLFSELPSKEKQVVKEGATTLLWFEHPAERFLIVTDEATANMLTDKLRGEAELNNSQQWLALNIEAGFPVIDAANSGQFIPQATNLQALGGISFKKGCYTGQEMVARAKFRGANKRALWLLAGSASRLPEAGEDLELKMGENWRRTGTVLAAVKLEDGQVVVQVVMNNDMEPDSIFRVRDDANTLHIEPLPYSLEE", "protein production": "not failed"}, {"sequence": "MAFVRYIPCRKIPRNVDQFELPCLGSLRAFFSTQKLIGDEPVLVRDFIHTALYDPIQGYFSQRSKSVGVLERSIKFNQLEGRKAYMKLLEKVYKQSDISWFTPVELFKPWYAHGIAEAILRTTNLSVPLKGVLDYIMLNAPERIYKNMSYTSIEISPSLAKIQKETVAQVGSHLSKFRVECRDASDLAGWSKVLFVQHKADSGFQFPVAMLEFENVEQQPCWVIMLEVLDNLPHDLVYSKSQLSPWMEVLVENKPESEALSELYKPLEDPLIKRCIEIVEHEDDPKLLEVLHAKLPKMSLIASDFSFLPDVKVPGERAPLVSTKKDGCSSDYSSYLDAKGDADIFFPTDFWLLERMDHYCSGWRKMEKDGTPSKKGRKRRTLTVNQDSL", "protein production": "failed"}, {"sequence": "MAGAMIEARGLVKRFVSGRIRRRVVEALKGVSFSVYEGEIYSFLGPNGAGKTTTVRILSTLLDPDGGEARVAGFDVVKERWEVRKRIGVMLSVERGFYWKLTGRENLYYFGRIYGIPQGELKSRIKEVLDLVGLTDLGGADKPFEEMSLGMKARLGLARVLLKDPEVLILDEPTLGLDPASARTIRGVIRSLASEGRTIFITTHNMVEAEMISDRVGIIIGGRIAMEGTPDELKRRVFSSINLEFRVKASGHAAKKFFYDVKGEYGNRIVGGVTFSDGILTFRVSVNRDEPAEPIIDRITRLAYQYRFKILEIKALEPSLEDVFVAVSESGEARSGRVKGSIAQRLEHHHHHH", "protein production": "not failed"}, {"sequence": "MAGEQIKPVASGLLVLNFCMYVIVLGIGGWAMNRAIDHGFEVGPNLELPAHFSPIYFPMGNAATGFFVIFALLAGVVGAASTISGLSHIRSWTVGSLPAAATAATIAWTLTVLAMGFAWKEIELQGRNAKLRTMEAFLIILSVTQLIYIAAVHGVRRP", "protein production": "failed"}, {"sequence": "MAGFISNFFGVGDSDSQYEEPTEASQAAAPTESATNTRSTPKVVPMQGGKSVNSKIALFEPKIYSDVKEIATQLLKNQAVIINFDHVDDEMARRIVDFLTGTVFAINGEIERIGDEIFLCIPENYEVSGSTTSQFDTSKLLEHHHHHH", "protein production": "not failed"}, {"sequence": "MAGFPELVVLDPPWDKELAAGTESQALVSATPREDFRVRCTSKRAVTEMLQLCGRFVQKLGDALPEEIREPALRDAQWTFESAVQENISINGQAWQEASDNCFMDSDIKVLEDQFDEIIVDIATKRKQYPRKILECVIKTIKAKQEILKQYHPVVHPLDLKYDPDPAPHMENLKCRGETVAKEISEAMKSLPALIEQGEGFSQVLRMQPVIHLQRIHQEVFSSCHRKPDAKPENFITQIETTPTETASRKTSDVVLKRKQTKDCPQRKWYPLRPKKINLDT", "protein production": "failed"}, {"sequence": "MAGFSSLIPRTLLKRAVSSATRNLTAPLASISAARNLFIGGGCDENYGEPGVFSHSNGIRKYNTVGNAGALTGPFHHLLGVNQTNKPAFLRVQSMSYQFVADSHSSPKRIVKNEDEEDFSDSSKKGNAENPRKHQIGENIPKKDKIKFLVNTLLDIEDNKEAVYGALDAWVAWERNFPIASLKIVIASLEKEHQWHRMVQVIKWILSKGQGNTMGTYGQLIRALDMDRRAEEAHVIWRKKVGNDLHSVPWQLCLQMMRIYFRNNMLQELVKLFKDLESYDRKPPDKHIVQTVADAYELLGMLDEKERVVTKYSHLLLGTPSDDKPSRSSRKKKKPELRIPEATTEGAVDAAKAEIQEERKENLDNHQESEAATEKQFEHGA", "protein production": "failed"}, {"sequence": "MAGGVDGPIGIPFPDHSSDILSGLNEQRTQGLLCDVVILVEGREFPTHRSVLAACSQYFKKLFTSGAVVDQQNVYEIDFVSAEALTALMDFAYTATLTVSTANVGDILSAARLLEIPAVSHVCADLLDRQIL", "protein production": "failed"}, {"sequence": "MAGHSHWAQIKHKKAKVDAQRGKLFSKLIREIIVATRLGGPNPEFNPRLRTAIEQAKKANMPWENIERAIKKGAGELEGEQFEEVIYEGYAPGGVAVMVLATTDNRNRTTSEVRHVFTKHGGNLGASGCVSYLFERKGYIEVPAKEVSEEELLEKAIEVGAEDVQPGEEVHIIYTVPEELYEVKENLEKLGVPIEKAQITWKPISTVQINDEETAQKVIKLLNALEELDDVQQVIANFEIPEEILQKVG", "protein production": "not failed"}, {"sequence": "MAGIKVFGHPASTSTRRVLIALHEKNLDFELVHVELKDGEHKKEPFLSRNPFGQVPAFEDGDLKLFESRAITQYIAHRYENQGTNLLPADSKNIAQYAIMSIGIQVEAHQFDPVASKLAWEQVFKFNYGLNTDQAVVAEEEAKLAKVLDVYEARLKEFKYLAGETFTLTDLHHIPVIQYLLGTPTKKLFTERPRVNEWVAEITKRPASEKVL", "protein production": "failed"}]}]}
